Results published in CN101151278A (GENENTECH INC, dated 2008).

T1: CD20 on WIL2-S cells (human, UniProt P11836 1-297)
T1 construct: whole, on cells; also called CD20抗原; 人CD20
T1 sequence (looked up): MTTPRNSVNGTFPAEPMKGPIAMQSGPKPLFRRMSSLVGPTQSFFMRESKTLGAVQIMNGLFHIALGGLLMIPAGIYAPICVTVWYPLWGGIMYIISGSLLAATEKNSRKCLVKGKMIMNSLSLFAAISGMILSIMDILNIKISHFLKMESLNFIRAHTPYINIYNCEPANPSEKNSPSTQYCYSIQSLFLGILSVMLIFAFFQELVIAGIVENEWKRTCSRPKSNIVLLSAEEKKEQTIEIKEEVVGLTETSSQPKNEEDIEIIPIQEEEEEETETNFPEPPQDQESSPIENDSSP


How the values were obtained:
人FcRn [1] = biological target: T2, 人FcRn (human, UniProt P55899 24-297; P61769 21-119, limits assumed); assay: ELISA, biotinylated human FcRn on NeutrAvidin plate, pH 6.0
T2 construct: immobilised on a CM5 chip (BIAcore) or biotinylated and captured on NeutrAvidin (ELISA); also called huFcRn; human FcRn

人FcRn [2] = biological target: T2, 人FcRn; assay: ELISA, biotinylated human FcRn on NeutrAvidin plate, pH 7.4
CD20 on WIL2-S cells [3] = biological target: T1, CD20 on WIL2-S cells; assay: competitive Scatchard on WIL2-S cells, apparent Kd; competitor of 125I-2H7.v138
CD20 on WIL2-S cells [4] = biological target: T1, CD20 on WIL2-S cells; assay: competitive Scatchard on WIL2-S cells, apparent Kd; competitor of 125I-2H7.v511

Binder	binding result (人FcRn [1])	binding result (人FcRn [2])	also measured
2H7.v477 (antibody, human IgG1, kappa, IgG1; 2H7.v138 with N434W) heavy: EVQLVESGGGLVQPGGSLRLSCAASGYTFTSYNMHWVRQAPGKGLEWVGAIYPGNGATSYNQKFKGRFTISVDKSKNTLYLQMNSLRAEDTAVYYCARVVYYSASYWYFDVWGQGTLVTVSSASTKGPSVFPLAPSSKSTSGGTAALGCLVKDYFPEPVTVSWNSGALTSGVHTFPAVLQSSGLYSLSSVVTVPSSSLGTQTYICNVNHKPSNTKVDKKVEPKSCDKTHTCPPCPAPELLGGPSVFLFPPKPKDTLMISRTPEVTCVVVDVSHEDPEVKFNWYVDGVEVHNAKTKPREEQYNATYRVVSVLTVLHQDWLNGKEYKCKVSNAALPAPIAATISKAKGQPREPQVYTLPPSREEMTKNQVSLTCLVKGFYPSDIAVEWESNGQPENNYKTTPPVLDSDGSFFLYSKLTVDKSRWQQGNVFSCSVMHEALHWHYTQKSLSLSPGK light: DIQMTQSPSSLSASVGDRVTITCRASSSVSYLHWYQQKPGKAPKPLIYAPSNLASGVPSRFSGSGSGTDFTLTISSLQPEDFATYYCQQWAFNPPTFGQGTKVEIKRTVAAPSVFIFPPSDEQLKSGTASVVCLLNNFYPREAKVQWKVDNALQSGNSQESVTEQDSKDSTYSLSSTLTLSKADYEKHKVYACEVTHQGLSSPVTKSFNRGEC	binds	–	–
2H7.v364 (antibody, human IgG1, kappa, name in EU numbering, IgG1; 2H7.v138 background with the N434 change) heavy: EVQLVESGGGLVQPGGSLRLSCAASGYTFTSYNMHWVRQAPGKGLEWVGAIYPGNGATSYNQKFKGRFTISVDKSKNTLYLQMNSLRAEDTAVYYCARVVYYSASYWYFDVWGQGTLVTVSSASTKGPSVFPLAPSSKSTSGGTAALGCLVKDYFPEPVTVSWNSGALTSGVHTFPAVLQSSGLYSLSSVVTVPSSSLGTQTYICNVNHKPSNTKVDKKVEPKSCDKTHTCPPCPAPELLGGPSVFLFPPKPKDTLMISRTPEVTCVVVDVSHEDPEVKFNWYVDGVEVHNAKTKPREEQYNATYRVVSVLTVLHQDWLNGKEYKCKVSNAALPAPIAATISKAKGQPREPQVYTLPPSREEMTKNQVSLTCLVKGFYPSDIAVEWESNGQPENNYKTTPPVLDSDGSFFLYSKLTVDKSRWQQGNVFSCSVMHEALHAHYTQKSLSLSPGK light: DIQMTQSPSSLSASVGDRVTITCRASSSVSYLHWYQQKPGKAPKPLIYAPSNLASGVPSRFSGSGSGTDFTLTISSLQPEDFATYYCQQWAFNPPTFGQGTKVEIKRTVAAPSVFIFPPSDEQLKSGTASVVCLLNNFYPREAKVQWKVDNALQSGNSQESVTEQDSKDSTYSLSSTLTLSKADYEKHKVYACEVTHQGLSSPVTKSFNRGEC	–	binds	–
2H7.v479 (antibody, human IgG1, kappa, name in EU numbering, IgG1; 2H7.v138 background with the N434 change) heavy: EVQLVESGGGLVQPGGSLRLSCAASGYTFTSYNMHWVRQAPGKGLEWVGAIYPGNGATSYNQKFKGRFTISVDKSKNTLYLQMNSLRAEDTAVYYCARVVYYSASYWYFDVWGQGTLVTVSSASTKGPSVFPLAPSSKSTSGGTAALGCLVKDYFPEPVTVSWNSGALTSGVHTFPAVLQSSGLYSLSSVVTVPSSSLGTQTYICNVNHKPSNTKVDKKVEPKSCDKTHTCPPCPAPELLGGPSVFLFPPKPKDTLMISRTPEVTCVVVDVSHEDPEVKFNWYVDGVEVHNAKTKPREEQYNATYRVVSVLTVLHQDWLNGKEYKCKVSNAALPAPIAATISKAKGQPREPQVYTLPPSREEMTKNQVSLTCLVKGFYPSDIAVEWESNGQPENNYKTTPPVLDSDGSFFLYSKLTVDKSRWQQGNVFSCSVMHEALHYHYTQKSLSLSPGK light: DIQMTQSPSSLSASVGDRVTITCRASSSVSYLHWYQQKPGKAPKPLIYAPSNLASGVPSRFSGSGSGTDFTLTISSLQPEDFATYYCQQWAFNPPTFGQGTKVEIKRTVAAPSVFIFPPSDEQLKSGTASVVCLLNNFYPREAKVQWKVDNALQSGNSQESVTEQDSKDSTYSLSSTLTLSKADYEKHKVYACEVTHQGLSSPVTKSFNRGEC	–	binds	–
hu2H7.v511 (antibody, human IgG1, kappa, V domains shown, full-length IgG1) VH: EVQLVESGGGLVQPGGSLRLSCAASGYTFTSYNMHWVRQAPGKGLEWVGAIYPGNGATSYNQKFKGRFTISVDKSKNTLYLQMNSLRAEDTAVYYCARVVYYSYRYWYFDVWGQGTLVTVSS VL: DIQMTQSPSSLSASVGDRVTITCRASSSVSYLHWYQQKPGKAPKPLIYAPSNLASGVPSRFSGSGSGTDFTLTISSLQPEDFATYYCQQWAFNPPTFGQGTKVEIKR	–	–	Kd (CD20 on WIL2-S cells [3]): 0.11 nM; Kd (CD20 on WIL2-S cells [4]): 0.45 nM

Second part, led by results:

binding result (人FcRn [1])	binding result (人FcRn [2])	Binder	also measured
binds	–	2H7.v478 (antibody, human IgG1, kappa, name in EU numbering, IgG1; 2H7.v138 background with the N434 change) heavy: EVQLVESGGGLVQPGGSLRLSCAASGYTFTSYNMHWVRQAPGKGLEWVGAIYPGNGATSYNQKFKGRFTISVDKSKNTLYLQMNSLRAEDTAVYYCARVVYYSASYWYFDVWGQGTLVTVSSASTKGPSVFPLAPSSKSTSGGTAALGCLVKDYFPEPVTVSWNSGALTSGVHTFPAVLQSSGLYSLSSVVTVPSSSLGTQTYICNVNHKPSNTKVDKKVEPKSCDKTHTCPPCPAPELLGGPSVFLFPPKPKDTLMISRTPEVTCVVVDVSHEDPEVKFNWYVDGVEVHNAKTKPREEQYNATYRVVSVLTVLHQDWLNGKEYKCKVSNAALPAPIAATISKAKGQPREPQVYTLPPSREEMTKNQVSLTCLVKGFYPSDIAVEWESNGQPENNYKTTPPVLDSDGSFFLYSKLTVDKSRWQQGNVFSCSVMHEALHFHYTQKSLSLSPGK light: DIQMTQSPSSLSASVGDRVTITCRASSSVSYLHWYQQKPGKAPKPLIYAPSNLASGVPSRFSGSGSGTDFTLTISSLQPEDFATYYCQQWAFNPPTFGQGTKVEIKRTVAAPSVFIFPPSDEQLKSGTASVVCLLNNFYPREAKVQWKVDNALQSGNSQESVTEQDSKDSTYSLSSTLTLSKADYEKHKVYACEVTHQGLSSPVTKSFNRGEC	–
–	binds	2H7.v138 (antibody, human IgG1, kappa, IgG1) heavy: EVQLVESGGGLVQPGGSLRLSCAASGYTFTSYNMHWVRQAPGKGLEWVGAIYPGNGATSYNQKFKGRFTISVDKSKNTLYLQMNSLRAEDTAVYYCARVVYYSASYWYFDVWGQGTLVTVSSASTKGPSVFPLAPSSKSTSGGTAALGCLVKDYFPEPVTVSWNSGALTSGVHTFPAVLQSSGLYSLSSVVTVPSSSLGTQTYICNVNHKPSNTKVDKKVEPKSCDKTHTCPPCPAPELLGGPSVFLFPPKPKDTLMISRTPEVTCVVVDVSHEDPEVKFNWYVDGVEVHNAKTKPREEQYNATYRVVSVLTVLHQDWLNGKEYKCKVSNAALPAPIAATISKAKGQPREPQVYTLPPSREEMTKNQVSLTCLVKGFYPSDIAVEWESNGQPENNYKTTPPVLDSDGSFFLYSKLTVDKSRWQQGNVFSCSVMHEALHNHYTQKSLSLSPGK light: DIQMTQSPSSLSASVGDRVTITCRASSSVSYLHWYQQKPGKAPKPLIYAPSNLASGVPSRFSGSGSGTDFTLTISSLQPEDFATYYCQQWAFNPPTFGQGTKVEIKRTVAAPSVFIFPPSDEQLKSGTASVVCLLNNFYPREAKVQWKVDNALQSGNSQESVTEQDSKDSTYSLSSTLTLSKADYEKHKVYACEVTHQGLSSPVTKSFNRGEC	–
